For assay [1], the target named is GAPDH present on the surface of N. glabratus cells (N. glabratus (endogenous in CBS138 / ATCC 2001)). In words: SEC; Superdex 200 HR 10/50, calibrated with molecular mass standards, 0.5 mL/min; buffer 20 mM Tris-HCl pH 6.7 (methods) or 50 mM NaH2PO4, 150 mM NaCl pH 7.0. A general note: Size exclusion chromatography separates by hydrodynamic size, large species first.

The target of assay [2] is epithelial adhesin 6 of N. glabratus (N. glabratus (endogenous)) (UniProt Q6FX55). In words: BLI; Octet N1; Epa6 immobilised on an AR2G biosensor; NgGAPDH 100–1000 nM; Langmuir 1:1 model. On the technique in general: Biolayer interferometry detects binding as a change in optical thickness at a sensor tip.
For assay [3], the target named is cytoplasmic Nakaseomyces glabratus glyceraldehyde 3-phosphate dehydrogenase (N. glabratus (endogenous in CBS138 / ATCC 2001)). In words: SEC; Superdex 200 HR 10/50, calibrated with molecular mass standards, 0.5 mL/min; buffer 20 mM Tris-HCl pH 6.7 (methods) or 50 mM NaH2PO4, 150 mM NaCl pH 7.0.
In assay [4] the target is vitronectin (Homo sapiens) (UniProt P04004). The conditions noted are these: cited from earlier work.
The target in assay [5] is GAPDH present on the surface of N. glabratus cells (N. glabratus (endogenous in CBS138 / ATCC 2001)). In words: whole-cell binding assay with antibody blocking (SA-HRP/TMB); C. albicans hyphae in MaxiSorp wells (10^6 cells per well) or N. glabratus cells in tubes (3 × 10^7 per tube), pre-incubated with polyclonal anti-ScGAPDH antibody (1 µg/mL), then 150 nM biotin-labeled VTR or HPG, 1 h at 37 °C.

Assay [6] concerns the target GAPDH on the surface of C. albicans cells (C. albicans (endogenous in ATCC 10231)) (UniProt Q5ADM7). The description is as above.
The target of assay [7] is recombinant Candida albicans glyceraldehyde 3-phosphate dehydrogenase (C. albicans) (UniProt Q5ADM7). In words: BLI; Octet N1; GAPDH amine-coupled on an AR2G biosensor; VTR or HPG 31–500 nM in solution; Langmuir 1:1 model.
For assay [8], the target named is cytoplasmic Nakaseomyces glabratus glyceraldehyde 3-phosphate dehydrogenase (N. glabratus (endogenous in CBS138 / ATCC 2001)). The assay is described as above.
Assay [9] has as its target recombinant Candida albicans glyceraldehyde 3-phosphate dehydrogenase (C. albicans) (UniProt Q5ADM7). In words: SPR; Biacore 3000; GAPDH amine-coupled on a CM5 chip; VTR 10–500 nM, 30 µL/min, 25 °C, HBS buffer (10 mM HEPES, 150 mM NaCl, 0.005% P20, pH 7.4); Langmuir 1:1 model with baseline drift. In general terms: Surface plasmon resonance follows binding to a sensor surface in real time, without labels.

Assay [10] has as its target cytoplasmic Nakaseomyces glabratus glyceraldehyde 3-phosphate dehydrogenase (N. glabratus (endogenous in CBS138 / ATCC 2001)). The assay is described as above.

Chain of vitronectin (Homo sapiens) (P04004 399-478): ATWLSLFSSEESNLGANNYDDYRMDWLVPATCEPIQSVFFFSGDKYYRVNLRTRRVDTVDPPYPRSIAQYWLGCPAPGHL

The substance “GAPDH present on the surface of N. glabratus cells (enzyme)” had a stoichiometry N in assay [1] of 4.

With “cytoplasmic Nakaseomyces glabratus glyceraldehyde 3-phosphate dehydrogenase (enzyme)”, in assay [2], the Kd was in the range of 7 to 14 nM. Besides, in assay [3], the stoichiometry N is 4.

In the case of enolase (from UniProt P30575), in [4], the Kd was 40 nM.

Consider human plasminogen (natural protein), for which the percent decrease of binding to cells with anti-ScGAPDH antibody in assay [5] was determined as 36%; in assay [6], 19%. The Kd in [7] stood at 150 nM; in assay [8], 8.69 nM. Further, the koff in assay [7] stood at 0.00496 s⁻¹; in [8], 0.000649 s⁻¹. In addition, the kon in assay [7] was determined as 33000 M⁻¹ s⁻¹; in assay [8] it was 74600 M⁻¹ s⁻¹.

As for human vitronectin (natural protein), the percent decrease of binding to cells with anti-ScGAPDH antibody in [5] is 12%; in [6] it was 16%. The Kd in [7] stood at 20.6 nM; in [8], 33.9 nM; in assay [9], 44.2 nM; in [10], 48 nM. The koff is 0.000799 s⁻¹ in assay [7], 0.00172 s⁻¹ in assay [8], 0.000619 s⁻¹ in assay [9] and 0.00183 s⁻¹ in assay [10]. Also, the kon in [7] is 38900 M⁻¹ s⁻¹; in assay [8], 50700 M⁻¹ s⁻¹; in assay [9], 14000 M⁻¹ s⁻¹; in assay [10], 38100 M⁻¹ s⁻¹.

Broadly, the stoichiometry N is a count of units in the complex or per binding partner. Broadly, the Kd is a measure of binding affinity in units of concentration. In general, koff refers to the rate constant with which the complex falls apart. One may read the kon as the second-order rate constant of association.

The values are drawn from publication PMC10815899.
